Assay [1] concerns the target T1, Human CD3 epsilon (CD3ε), on primary human pan T cells (human, UniProt P07766 23-207).
T1 construct: Endogenous CD3 in the TCR complex on T cells; also called T-cell surface glycoprotein CD3 epsilon chain; T3E
Kind of assay: flow cytometry on human T cells, anti-human IgG Fc A647 detection. The method, then:
The bsAbs were assayed for their abilities bind T cells and to induce T-cell mediated cytotoxicity against H929 cells (ATCC@CRL-9068™). […] Stain buffer with no antibody was added to bottom 4 wells and assign as background control (secondary antibody alone). Parental Cris7b, CD3B695 (bivalent mAb controls) and CD3B375 (bsAb which was monovalent for Cris-7b) were added also with full dose-response curves.
Frozen T-cells were thawed in a 37° C. water bath and transferred gently into conical tube containing warm 5 mL media (RPMI+10% FBS)/1 vial of 1×10⁶ cells. Cells were mixed and centrifuged for 5 minutes at 400×g followed by resuspension in flow staining buffer, and counted and viability checked. Cells were then plated in 50 uL/50,000 cells/well into assay plates. Assay positive control mAb was added in the first column in quadruplicates at 2× at 20 nM in the bottom 4 wells. Stain buffer with no mAb was added to the top 4 wells and assigned as background controls (secondary antibody alone). Serially diluted antibody samples were added at 50 uL/well using Intergra Viaflo according to the attached plate maps and incubated for 1 hr at 37° C. After one hour incubation, 150 uL staining buffer were added to all wells, and cells were spun at 500×g for 5 minutes to pellet cells. Cells were then washed prior to addition of Alexa Fluor 647 (A647) conjugated anti human IgG Fc specific secondary detection antibody at 2 ug/mL in staining buffer. Secondary detection antibody was added at 50 uL/well to the washed cells. Plates were covered with foil and incubated for 30 minutes on ice or in the fridge. 150 uL staining buffer were added to all wells, and cells were spun at 500×g for 5 min to pellet cells. Cells were resuspended in 20 uL running buffer containing 1:1000 dilution of SYTOX™ green dead cell stain and run plates on iQue® Screener flow cytometer (Essen BioScience, Inc.). Briefly, cells were gated on FCS vs. SCS dot plot to eliminate debris. Singlets were gated on SCS-A vs SCS-H dot plot and from singlet population, live cells gated choosing BL1 channel for low/negative with SYTOX™ green viability stain (Thermo Fisher).

In assay [2] the target is T2, recombinant human PSMA (human, UniProt Q04609 44-750).
T2 construct: also called hu PSMA; prostate-specific membrane antigen
Kind of assay: SPR (Biacore 8K), antibody captured on anti-Fc, PSMA in solution. Here is the method:
The antibodies were captured on a goat anti-Fc antibody-modified C1 chip and titrated with 3-fold serial dilutions of PSMA antigen spanning concentrations of 1 nM to 100 nM human PSMA. The association and dissociation were monitored for 3 and 30 minutes, respectively, using a flow rate of 50 μL/min. Raw binding data was referenced by subtracting the analyte binding signals from blanks and analyzed using a 1:1 Langmuir binding model by the Biacore Insight evaluation software to obtain the kinetics which were used to calculate the binding affinity. The anti-PSMA were captured using an anti-human Fc antibody and the antigens were injected in solution.
(SPR reads the build-up and loss of mass on a sensor chip optically.)

Assay [3] concerns the target T3, human PSMA on prostate cancer cell lines (22RV1, C4-2B) (human, UniProt Q04609 1-750).
T3 construct: also called PSMA-expressing cell lines
In words: flow cytometry on C4-2B cells, four-parameter fit. Here is the method:
Molecule concentrations ranged from 500-0 nM over 12-points at 3-fold dilution. […] Values reported in the Table 69 were generated by fitting the data to a four-parameter function for ligand binding generating values for y-min, y-max, EC50, and Hill. EC90 were calculated using the equation EC90=[…]\hat{ }(1/Hill)*EC50.
(In general: In flow cytometry, cells or beads pass a laser one at a time.)

Numbering of substitutions follows the chain as printed. Numbers in names are those of the source.

T1 sequence (P07766 23-207 limits assumed): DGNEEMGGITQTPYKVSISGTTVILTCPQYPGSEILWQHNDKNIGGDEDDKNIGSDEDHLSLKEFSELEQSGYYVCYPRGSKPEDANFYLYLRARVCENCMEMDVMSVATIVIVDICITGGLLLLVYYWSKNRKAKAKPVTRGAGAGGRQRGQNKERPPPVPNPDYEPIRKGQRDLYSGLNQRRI
T3 sequence (Q04609 whole entry): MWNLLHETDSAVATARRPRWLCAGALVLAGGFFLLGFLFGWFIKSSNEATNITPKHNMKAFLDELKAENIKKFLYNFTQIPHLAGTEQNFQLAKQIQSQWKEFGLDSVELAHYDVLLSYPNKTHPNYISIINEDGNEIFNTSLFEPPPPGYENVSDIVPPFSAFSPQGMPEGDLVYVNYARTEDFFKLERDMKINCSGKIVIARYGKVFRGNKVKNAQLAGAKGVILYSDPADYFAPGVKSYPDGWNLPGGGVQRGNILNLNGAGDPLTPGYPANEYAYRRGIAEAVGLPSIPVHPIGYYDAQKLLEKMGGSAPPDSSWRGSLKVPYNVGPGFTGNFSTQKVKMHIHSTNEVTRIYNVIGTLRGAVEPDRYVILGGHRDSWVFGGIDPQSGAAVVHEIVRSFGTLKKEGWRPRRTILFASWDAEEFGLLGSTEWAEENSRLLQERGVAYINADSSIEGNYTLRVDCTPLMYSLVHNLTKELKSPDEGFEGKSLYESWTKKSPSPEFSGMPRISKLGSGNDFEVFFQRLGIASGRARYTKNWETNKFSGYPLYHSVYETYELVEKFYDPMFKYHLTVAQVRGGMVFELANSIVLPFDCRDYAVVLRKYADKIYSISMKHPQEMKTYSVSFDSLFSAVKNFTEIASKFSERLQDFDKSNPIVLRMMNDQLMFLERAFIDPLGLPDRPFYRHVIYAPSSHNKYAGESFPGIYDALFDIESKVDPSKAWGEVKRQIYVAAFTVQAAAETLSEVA
T2 sequence (Q04609 44-750 limits assumed): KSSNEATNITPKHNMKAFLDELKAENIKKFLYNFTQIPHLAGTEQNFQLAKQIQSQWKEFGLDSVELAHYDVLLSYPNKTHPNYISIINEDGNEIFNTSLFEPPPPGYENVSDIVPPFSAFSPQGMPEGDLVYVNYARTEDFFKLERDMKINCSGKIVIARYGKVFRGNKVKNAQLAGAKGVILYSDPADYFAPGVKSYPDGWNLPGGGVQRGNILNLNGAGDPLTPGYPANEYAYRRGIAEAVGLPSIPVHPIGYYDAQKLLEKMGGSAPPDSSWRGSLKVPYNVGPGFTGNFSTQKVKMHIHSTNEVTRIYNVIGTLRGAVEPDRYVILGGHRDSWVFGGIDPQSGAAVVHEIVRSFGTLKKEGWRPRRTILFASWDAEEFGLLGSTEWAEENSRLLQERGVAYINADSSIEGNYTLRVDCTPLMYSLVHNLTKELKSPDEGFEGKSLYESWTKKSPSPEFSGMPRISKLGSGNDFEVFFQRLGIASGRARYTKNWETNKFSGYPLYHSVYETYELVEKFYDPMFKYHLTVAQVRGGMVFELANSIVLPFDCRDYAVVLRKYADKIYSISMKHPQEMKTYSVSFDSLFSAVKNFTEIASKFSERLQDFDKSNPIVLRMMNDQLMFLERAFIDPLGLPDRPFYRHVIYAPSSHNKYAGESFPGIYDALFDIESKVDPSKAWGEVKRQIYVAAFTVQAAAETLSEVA

B1: BC3B120 (bispecific antibody, human IgG1, kappa, L234A L235A)
chain: EIVLTQSPATLSASPGERVTLSCSASSSVSYMNWYQQKPGQAPRRLIYDSSKLASGVPARFSGSGSGRDYTLTISSLEPEDFAVYYCQQWSRNPPTFGGGTKVEIKGGSEGKSSGSGSESKSTGGSQVQLVQSGAEVKKPGSSVKVSCKASGYTFTRSTMHWVKQAPGQGLEWMGYINPSSAYTNYNQKFQGRVTLTADKSTSTAYMELSSLRSEDTAVYYCASPQVHYDYNGFPYWGQGTLVTVSSEPKSSDKTHTCPPCPAPEAAGGPSVFLFPPKPKDTLMISRTPEVTCVVVSVSHEDPEVKFNWYVDGVEVHNAKTKPREEQYNSTYRVVSVLTVLHQDWLNGKEYKCKVSNKALPAPIEKTISKAKGQPREPQVYVYPPSREEMTKNQVSLTCLVKGFYPSDIAVEWESNGQPENNYKTTPPVLDSDGSFALVSKLTVDKSRWQQGNVFSCSVMHEALHNHYTQKSLSLSPG
heavy: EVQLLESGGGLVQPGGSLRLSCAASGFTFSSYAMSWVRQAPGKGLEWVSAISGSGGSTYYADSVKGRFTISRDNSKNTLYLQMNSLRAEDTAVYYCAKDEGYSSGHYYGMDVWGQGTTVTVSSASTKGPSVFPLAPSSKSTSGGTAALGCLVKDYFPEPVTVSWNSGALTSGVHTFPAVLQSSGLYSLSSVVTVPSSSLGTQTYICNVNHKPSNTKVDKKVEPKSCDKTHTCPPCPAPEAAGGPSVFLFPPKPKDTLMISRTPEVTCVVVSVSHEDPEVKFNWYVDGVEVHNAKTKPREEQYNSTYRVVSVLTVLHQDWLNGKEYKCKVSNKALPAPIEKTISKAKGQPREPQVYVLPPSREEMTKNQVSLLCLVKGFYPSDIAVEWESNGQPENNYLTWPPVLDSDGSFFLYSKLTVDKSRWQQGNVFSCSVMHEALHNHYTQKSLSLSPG
light: EIVLTQSPGTLSLSPGERATLSCRASQSISSSFLTWYQQKPGQAPRLLIYGASSRATGIPDRFSGGGSGTDFTLTISRLEPEDFAVYYCQHYGSSPMYTFGQGTKLEIKRTVAAPSVFIFPPSDEQLKSGTASVVCLLNNFYPREAKVQWKVDNALQSGNSQESVTEQDSKDSTYSLSSTLTLSKADYEKHKVYACEVTHQGLSSPVTKSFNRGEC
notes: IgG1 BCMAxCD3; HC1: CD3B2051 LH scFv-Fc; also called BC3B120.001; B2051 LH
The term EC50 denotes the concentration needed to bring the measured effect to its halfway point. On to B1, for which the EC50 in assay [1] was determined as 100 nM.

B2: BC3B125 (bispecific antibody, human IgG1, kappa, L234A L235A)
chain: B1 chain with L46W, K164R, N187A
heavy: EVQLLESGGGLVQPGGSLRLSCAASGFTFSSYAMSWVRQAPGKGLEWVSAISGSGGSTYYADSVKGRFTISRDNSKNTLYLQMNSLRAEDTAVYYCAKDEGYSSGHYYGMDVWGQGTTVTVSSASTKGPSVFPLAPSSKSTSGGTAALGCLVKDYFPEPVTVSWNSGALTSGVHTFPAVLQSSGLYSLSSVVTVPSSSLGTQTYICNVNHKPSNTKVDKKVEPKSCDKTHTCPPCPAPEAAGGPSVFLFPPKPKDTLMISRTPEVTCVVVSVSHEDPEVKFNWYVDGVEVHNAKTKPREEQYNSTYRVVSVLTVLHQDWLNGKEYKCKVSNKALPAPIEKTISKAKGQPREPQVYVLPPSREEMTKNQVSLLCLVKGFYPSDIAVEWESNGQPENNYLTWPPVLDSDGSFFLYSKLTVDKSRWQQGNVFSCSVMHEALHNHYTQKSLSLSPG
light: B1 light
notes: IgG1 BCMAxCD3; HC1: CD3B2089 LH scFv-Fc; also called BC3B125.001; B2089 LH
Take B2: it took 36.9 nM to reach a half-maximal effect in assay [1] (EC50).

B3: BC3B124 (bispecific antibody, human IgG1, kappa, L234A L235A)
chain: B1 chain with N232S
heavy: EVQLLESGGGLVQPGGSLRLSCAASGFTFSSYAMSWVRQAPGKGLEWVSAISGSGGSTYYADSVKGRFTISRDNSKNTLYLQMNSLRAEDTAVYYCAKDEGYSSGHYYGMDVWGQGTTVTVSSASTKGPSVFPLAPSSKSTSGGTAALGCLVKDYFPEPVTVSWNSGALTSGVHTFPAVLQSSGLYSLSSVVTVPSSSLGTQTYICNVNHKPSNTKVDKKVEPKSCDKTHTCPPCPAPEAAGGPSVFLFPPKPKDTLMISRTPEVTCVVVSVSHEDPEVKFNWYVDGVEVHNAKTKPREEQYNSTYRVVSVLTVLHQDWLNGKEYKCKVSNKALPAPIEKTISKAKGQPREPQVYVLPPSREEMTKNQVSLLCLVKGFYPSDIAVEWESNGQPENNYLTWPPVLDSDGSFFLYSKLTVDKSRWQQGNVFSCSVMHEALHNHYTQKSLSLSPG
light: B1 light
notes: IgG1 BCMAxCD3; HC1: CD3B2051-N106S LH scFv-Fc; also called BC3B124.001; B2051 LH NtoS
In assay [1], B3 displayed an EC50 of 300 nM.

B4: PSMB1051 (bispecific antibody, human IgG1, kappa, L234A L235A)
heavy: not shown
light: not shown
chain: QSVLTQPPSASGTPGQGVTISCSGSSSNIGSNTVNWFQQLPGTAPKLLIYSDNQRPSGVPDRFSGSKSGTSASLAISGLQSEDEADYYCAAWDDSLNGYVFGTGTKVTVLGGSEGKSSGSGSESKSTGGSEVQLVESGGGVVQPGRSLRLSCAASGFTFITYGMHWVRQAPGKGLEWVAVVSFDESNKYYADSVKGRFTISRDNSKNTLYLQMNSLRAEDTAVYYCARALRDGNNWDYFNGMDVWGQGTTVTVSSEPKSSDKTHTCPPCPAPEAAGGPSVFLFPPKPKDTLMISRTPEVTCVVVSVSHEDPEVKFNWYVDGVEVHNAKTKPREEQYNSTYRVVSVLTVLHQDWLNGKEYKCKVSNKALPAPIEKTISKAKGQPREPQVYVLPPSREEMTKNQVSLLCLVKGFYPSDIAVEWESNGQPENNYLTWPPVLDSDGSFFLYSKLTVDKSRWQQGNVFSCSVMHEALHNHYTQKSLSLSPG
notes: HC1 (ZWA): B23B62-Fab; LC2 is NA
A word on the Kd: it is the constant that tells how readily two partners part at equilibrium. As usually defined, the koff is a measure of how fast the partners let go of each other. Usually kon stands for the second-order rate constant of association. Broadly, the EC90 is the concentration needed for an effect of 90%. A high value points to weaker potency. Turning to B4, in assay [2], the Kd was found to be 1.01 nM, the koff was determined as 7.75e-05 s⁻¹ and the kon was found to be 77100 M⁻¹ s⁻¹. In assay [3], this molecule displayed an EC50 of 10 nM, an EC90 of 76 nM, a Y-max of 1.5e+06 and a Y-min of 67000.

B5: PSMB1045 (bispecific antibody, human IgG1, kappa, L234A L235A)
heavy: not shown
light: not shown
chain: SYELMQPPSVSVSPGQTARITCSGDALPKQYAYWYQQKPGQAPVLVIYKDSERPSGIPVRFSGSSSGTTVTLTITGVQAEDEADYYCQSADSSGTYVFGTGTKVTVLGGSEGKSSGSGSESKSTGGSQVQLVESGGGVVQPGRSLRLSCAASGFTFSSYNMNWVRQAPGKGLEWVAIIYYDGSNKYYADSVKGRFTISRDISKNTLYLQMNSLRAEDTAVYYCARERGRDYYGMDVWGQGTTVTVSSEPKSSDKTHTCPPCPAPEAAGGPSVFLFPPKPKDTLMISRTPEVTCVVVSVSHEDPEVKFNWYVDGVEVHNAKTKPREEQYNSTYRVVSVLTVLHQDWLNGKEYKCKVSNKALPAPIEKTISKAKGQPREPQVYVLPPSREEMTKNQVSLLCLVKGFYPSDIAVEWESNGQPENNYLTWPPVLDSDGSFFLYSKLTVDKSRWQQGNVFSCSVMHEALHNHYTQKSLSLSPG
notes: as for B4
As to B5, in assay [2], the Kd is 0.333 nM, the koff is 6.98e-05 s⁻¹ and the kon stood at 209000 M⁻¹ s⁻¹. Further, in assay [3], it took 7 nM to reach a half-maximal effect (EC50), the EC90 came out at 248 nM, the Y-max stood at 1.8e+06 and the Y-min was found to be 53000.

B6: PSMB1049 (bispecific antibody, human IgG1, kappa, L234A L235A)
heavy: not shown
light: not shown
chain: QSVLTQPASVSGSPGQSITISCTGTSSDVGGYNYVSWYQQHPGKAPKLMIYEVSNRPSGVSNRFSGSKSGNTASLTISGLQAEDEADYYCSSYTSSYTYVFGTGTKLTVLGGSEGKSSGSGSESKSTGGSEVQLVESGGDLVQPGGSLRLSCAASGFTFNNYNMNWVRQAPGKGLEWVSHISTSSSNKYYADSVKGRFSISRDIAKNSMYLQMNSLRDEDTAVYYCARDGVGADYGDYYYYGMDVWGQGTTVTVSSEPKSSDKTHTCPPCPAPEAAGGPSVFLFPPKPKDTLMISRTPEVTCVVVSVSHEDPEVKFNWYVDGVEVHNAKTKPREEQYNSTYRVVSVLTVLHQDWLNGKEYKCKVSNKALPAPIEKTISKAKGQPREPQVYVLPPSREEMTKNQVSLLCLVKGFYPSDIAVEWESNGQPENNYLTWPPVLDSDGSFFLYSKLTVDKSRWQQGNVFSCSVMHEALHNHYTQKSLSLSPG
notes: as for B4
Regarding B6, in assay [2], the Kd came to 0.657 nM, the koff came out at 7.02e-05 s⁻¹ and the kon stood at 107000 M⁻¹ s⁻¹. In assay [3], this molecule returned an EC50 of 5 nM, an EC90 of 40 nM, a Y-max of 1.5e+06 and a Y-min of 84000.

B7: PSMB1068 (bispecific antibody, human IgG1, kappa, L234A L235A)
heavy: not shown
light: not shown
chain: QVQLQESGGDVVQPGRSLRLSCAASGFSFSGYGLHWVRQAPGRGLEWVTLISYDGSNKYYADSVKGRFTISRDNSKNTLYLQMNSLRAEDTAVYYCAKTTVSDPYYYGMDVWGQGTTVTVSSGGSEGKSSGSGSESKSTGGSSYELTQPPSVSVAPGQTARITCGGNNIGSKSVHWYQQKPGQAPVLVVYDDSDRPSGIPERFSGTNSGNTATLTISRAEAGDEADYYCQVWDSSSDHVVFGGGTKLTVLEPKSSDKTHTCPPCPAPEAAGGPSVFLFPPKPKDTLMISRTPEVTCVVVSVSHEDPEVKFNWYVDGVEVHNAKTKPREEQYNSTYRVVSVLTVLHQDWLNGKEYKCKVSNKALPAPIEKTISKAKGQPREPQVYVLPPSREEMTKNQVSLLCLVKGFYPSDIAVEWESNGQPENNYLTWPPVLDSDGSFFLYSKLTVDKSRWQQGNVFSCSVMHEALHNHYTQKSLSLSPG
notes: as for B4
With B7, in assay [2], the Kd is 1.11 nM, the koff came out at 0.000168 s⁻¹ and the kon turned out to be 151000 M⁻¹ s⁻¹. In assay [3], this molecule showed an EC50 of 8 nM, an EC90 of 247 nM, a Y-max of 1.9e+06 and a Y-min of 48000.

B8: PSMB1052 (bispecific antibody)
heavy: not shown
light: not shown
chain: SYELTQPPSVSVAPGQTARITCGGNNIGSKSVHWYQQKPGQAPVLVVYDDSDRPSGIPERFSGSNSGNTATLTISRVEAGDEADYYCQVWDSSTDHVVFGGGTKLTVLGGSEGKSSGSGSESKSTGGSEVQLVESGGGVVQPGRSLRLSCAASGFTFSSYGMNWVRQAPGKGLEWVAVTSYDGSNKYYADSVKGRFTISRDISKNTLYLQMSSLRAEDTAVYYCARDPYSSSWNGAFDIWGPGTMVTVSSEPKSSDKTHTCPPCPAPEAAGGPSVFLFPPKPKDTLMISRTPEVTCVVVSVSHEDPEVKFNWYVDGVEVHNAKTKPREEQYNSTYRVVSVLTVLHQDWLNGKEYKCKVSNKALPAPIEKTISKAKGQPREPQVYVLPPSREEMTKNQVSLLCLVKGFYPSDIAVEWESNGQPENNYLTWPPVLDSDGSFFLYSKLTVDKSRWQQGNVFSCSVMHEALHNHYTQKSLSLSPG
notes: as for B4
Turning to B8, in assay [2], the Kd is 1.61 nM, the dissociation rate constant (koff) came to 0.000315 s⁻¹ and the kon was 196000 M⁻¹ s⁻¹. Moreover, in assay [3], it took 13 nM to reach a half-maximal effect (EC50), the 90% effect level (EC90) was put at 100 nM, the Y-max came to 1.5e+06 and the Y-min turned out to be 68000.

For the origin of these results see US20250145711A1 (Janssen / Centocor, published 2025).
